Among the data in the supplement of paper PMC10126150 are switch fluorescence ratio values, retold here.

± gives the standard deviation of the averaged measurements.

The data set relates to ATP. Put plainly: switch fluorescence ratio, 500 uM ATP over buffer (Cy3 cluster intensity, sum of 5 cycles each) (fold (ratio)); higher = stronger signal-on switching upon ATP binding; sequences stand for … in TCGTCGGCAGCGTCAGATGTGTATAAGAGACAGTTTTTTTTTTTTTTTTTTTTTTTTT…TC. The following applies: aptamer strand: ATP DNA aptamer (quencher-CACCTGGGGGAGTATTGCGGAGGAAGG + anchor), 100 nM annealed; ATP concentration: 500 uM. Put shortly: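 The quencher-labelled ATP aptamer, at 100 nM, was annealed to Cy3-labelled switching-strand clusters on a modified Illumina MiSeq flow-cell. The clusters were imaged in selection buffer, then after 15 min with 500 uM ATP at 22 °C, and this buffer/ATP cycle ran five times with NaOH stripping and re-annealing between runs. Per-cluster fluorescence ratios, summed target-cycle over summed buffer-cycle Cy3 intensity, were averaged per switch-domain sequence. Clusters outside 100-1000 RFU were excluded.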
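Further: ATP exposure 15 min at 22 °C before imaging.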

Turning to AGCGTCAGTA, the switch fluorescence ratio stood at 0.999 ± 0.014.
With AGCGTGTGTG, the switch fluorescence ratio is 1.05 ± 0.059.
Consider AGCGTTGATG, for which the switch fluorescence ratio was 1.01 ± 0.03.
Next, AGCGTTTGGG: 1.0289 ± 0.001; AGCTAATCGT: 1.01 ± 0.014; AGCTACGGTG: 1.044 ± 0.0052.
Next, AGCTAGCGTT: 0.997 ± 0.024; AGCTAGGGTC: 1.05 ± 0.049; AGCTATTTGC: 0.983 ± 0.048.
The result for AGCTCATGTG reads 0.988 ± 0.026.
AGCTCGGTCG: the switch fluorescence ratio came to 0.963 ± 0.017.
The result for AGCTCTGACG reads 1.02 ± 0.024; that for AGCTCTGGCC, 0.961 ± 0.04; that for AGCTGAAGAC, 1.25 ± 0.097.
As to AGCTGCAGTG, the switch fluorescence ratio was found to be 1.02 ± 0.019.
For AGCTGGGCTC, the switch fluorescence ratio came to 1.07 ± 0.016.
The result for AGCTGGGTCC reads 1.04 ± 0.041; that for AGCTGGTCCG, 1.02 ± 0.022.
For the sequence AGCTGTGAC, the switch fluorescence ratio came out at 1.07 ± 0.04.
Take AGCTTAAGGG: the switch fluorescence ratio came out at 0.967 ± 0.02.
Next, AGCTTATGGT: 0.962 ± 0.049; AGCTTCAGGG: 1.01 ± 0.037; AGCTTCAGTC: 1 ± 0.03.
The result for AGCTTGAGGT reads 0.9941 ± 0.0019.
Regarding AGCTTGGAAA, the switch fluorescence ratio stood at 1 ± 0.031.
The result for AGCTTGGGAA reads 0.9627 ± 0.0063; that for AGCTTTAGAC, 1.09 ± 0.021.
The result for AGCTTTCCTA reads 0.9963 ± 0.007; that for AGCTTTCGCG, 0.99 ± 0.03; that for AGCTTTCTAT, 0.976 ± 0.011.
Next, AGCTTTTCTT: 1.03 ± 0.017; AGCTTTTGGG: 0.979 ± 0.071; AGCTTTTTTG: 1.024 ± 0.0039.
For AGGAAAAAAG, the switch fluorescence ratio is 1 ± 0.032.
Next, AGGAAAAAGG: 0.974 ± 0.034; AGGAAAAAGT: 1.02 ± 0.039; AGGAAAAATA: 0.988 ± 0.053.
Turning to AGGAAAATGG, the switch fluorescence ratio was 1 ± 0.021.
Next, AGGAAAATTT: 1 ± 0.047; AGGAAACCCG: 0.994 ± 0.064.
The result for AGGAAATAGT reads 1.05 ± 0.059.
Next, AGGAAATTGT: 1.01 ± 0.059; AGGAAGAACG: 1.04 ± 0.02; AGGAAGGCAC: 1.05 ± 0.016.
For AGGAAGTTAG, the switch fluorescence ratio is 0.961 ± 0.022.
The result for AGGAATAAAC reads 1.02 ± 0.013; that for AGGAATATGG, 1.04 ± 0.1.
The result for AGGAATTTGT reads 1.035 ± 0.0091.
Next, AGGACCAGGT: 1.02 ± 0.025; AGGACCAGTT: 1.03 ± 0.055.
As for AGGACGAGGG, the switch fluorescence ratio was found to be 0.983 ± 0.013.
The result for AGGACTGAAG reads 0.989 ± 0.07; that for AGGACTTTAG, 0.943 ± 0.091.
Consider AGGAGAAAAG, for which the switch fluorescence ratio amounted to 1.22 ± 0.29.
Next, AGGAGATACC: 1.03 ± 0.049; AGGAGATTAG: 0.978 ± 0.029; AGGAGCATTT: 1.04 ± 0.045.
The result for AGGAGGAGGG reads 0.932 ± 0.021; that for AGGAGGCAGG, 1.03 ± 0.011.
With AGGAGGCGCG, the switch fluorescence ratio was 1.05 ± 0.1.
The result for AGGAGGGCTC reads 1.01 ± 0.11.
As to AGGAGGTGGC, the switch fluorescence ratio is 1.03 ± 0.017.
AGGAGGTGTC: the switch fluorescence ratio came to 1.06 ± 0.11.
Next, AGGAGTACCA: 1.04 ± 0.015.
The result for AGGAGTGGAG reads 0.996 ± 0.013.
The result for AGGAGTGTCG reads 1.04 ± 0.039; that for AGGATAAGGA, 0.987 ± 0.029.
Consider AGGATAATGA, for which the switch fluorescence ratio was found to be 0.998 ± 0.03.
As for AGGATCGAGG, the switch fluorescence ratio turned out to be 1.02 ± 0.028.
The result for AGGATCGTCA reads 0.9893 ± 0.0038; that for AGGATGAAAG, 0.9896 ± 0.0034.
The result for AGGATGAATA reads 0.9974 ± 0.0019; that for AGGATGCATT, 1.8 ± 1.1.
AGGATGGACG: the switch fluorescence ratio stood at 1.02 ± 0.064.
Next, AGGATGGGGG: 0.997 ± 0.045.
The result for AGGATGGTTC reads 0.9541 ± 0.0016; that for AGGATTCGGG, 1.01 ± 0.021.
Next, AGGCAAACCC: 1.0669 ± 0.00051; AGGCAACCAC: 1.23 ± 0.033.
As for AGGCAGGGGA, the switch fluorescence ratio came to 1.03 ± 0.025.
As for AGGCCAGGGT, the switch fluorescence ratio was found to be 1.04 ± 0.021.
As for AGGCCATTGG, the switch fluorescence ratio was determined as 1.04 ± 0.024.
Next, AGGCCCTGTT: 0.989 ± 0.028; AGGCCGGGGT: 1.01 ± 0.055; AGGCGACTAT: 1 ± 0.011.
The result for AGGCGAGGGA reads 1.02 ± 0.0049; that for AGGCGAGTTA, 0.9937 ± 0.0054; that for AGGCGATTTA, 0.976 ± 0.022.
Next, AGGCGCAGTG: 1.04 ± 0.054; AGGCGCCGCA: 1.01 ± 0.018; AGGCGCGGGT: 0.998 ± 0.069.
With AGGCGGGCGA, the switch fluorescence ratio was determined as 1.02 ± 0.05.
The result for AGGCGGGCGT reads 0.9623 ± 0.0022; that for AGGCGGGTGA, 1.02 ± 0.013.
The result for AGGCGGTATC reads 1.047 ± 0.0025; that for AGGCGGTTTG, 0.985 ± 0.034; that for AGGCGTAAAT, 0.997 ± 0.029.
Next, AGGCGTAGCT: 1.01 ± 0.044.
AGGCTAAGAT: the switch fluorescence ratio is 1.0077 ± 0.001.
The result for AGGCTAGCGG reads 1.01 ± 0.019; that for AGGCTAGTGG, 0.993 ± 0.035; that for AGGCTGAGCT, 0.979 ± 0.051.
The result for AGGCTGCAGT reads 1.013 ± 0.007; that for AGGCTGGAGG, 1.01 ± 0.038; that for AGGCTTGGGC, 0.971 ± 0.012.
Next, AGGGAAATGA: 0.987 ± 0.024; AGGGAAGGTT: 0.982 ± 0.022; AGGGAATAAA: 1 ± 0.031.
For AGGGAATAGC, the switch fluorescence ratio stood at 1.01 ± 0.011.
Take AGGGAATCGT: the switch fluorescence ratio is 0.9953 ± 0.0013.
The result for AGGGAATGTT reads 0.972 ± 0.033.
The result for AGGGAATTGT reads 1 ± 0.037.
The result for AGGGACCTTA reads 1.04 ± 0.05; that for AGGGACTAGG, 0.994 ± 0.011.
Turning to AGGGAGCGCG, the switch fluorescence ratio came to 0.995 ± 0.011.
Next, AGGGAGGCGG: 0.974 ± 0.032; AGGGAGGGGA: 1.03 ± 0.061.
Next, AGGGAGGTGC: 1.02 ± 0.051; AGGGAGGTTA: 0.972 ± 0.06.
Next, AGGGAGTACA: 1.01 ± 0.013.
